Test results taken from patent US20250382353A1 (published 2025).

B1: Fab 2A10 (antibody, V domains shown)
VH: QVQLVESGGGLIQPGGSLRLSCAASEFIVSSNYMSWVRQAPGKGLEWVSLLYSGGTTYYADSVKGRFTISRDNSKNTLFLQMNSLRAEDTAMYYCARDRGPWLHDYWGQGTLVTVS
VL: DIVMTQSPSSLSASVGDRVTITCQASQDINKYCNWYQQKPGKAPKLLIYDASNLETGVPSRFSGSGSGTDFTFTINSLQPEDIATYYCQQYDNLPPTFGGGTKVEIK
B2: 1C3 antigen-binding fragment (Fab) (Fab, V domains shown)
VH: QVQLLESGGGLVQPGRSLRLSCAASGFTFDDYAMHWVRQPPGKGLEWVSGSSWNSGSVVYADSVKGRFTISRDSAKNSLHLQMNSLRVEDTALYYCAKAVDPTRGSYSPDYGFDIWGQGTMVTVS
VL: not shown

Target: SARS-CoV-2 D614G spike (SARS-CoV-2, UniProt P0DTC2 14-1208)
Test: SPR

Row | Binder | Kd [nM]
1 | B1 | 0.161
2 | B2 | 0.043
